Laboratory results from patent US20150351390A1, “COMPOSITIONS AND METHODS FOR AUXIN-ANALOG CONJUGATION” (PIONEER HI-BRED INTERNATIONAL, INC., priority 2012, published 2015).

Legend:
Assay type in all cases: biochemical
[1] = LC-MS assay of GH3 conjugation of IAA with Asp or Glu; settings: LC-MS; for Detected auxin conjugates: IAA-Asp: IAA with Asp; for Detected auxin conjugates: IAA-Glu: IAA with Glu
How it was run: (§1)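 Amino acid conjugates of IAA, 2,4-D or dicamba measured by LC-MS against conjugate standards, with kinetic parameters fitted to Michaelis-Menten initial velocities. Reactions: 5 mM each of auxin, ATP and Asp or Glu with 44 to 164 μg/mL purified His-tagged GH3 (E. coli-expressed), pH 8.0 Tris, 5 mM MgCl2, 1 mM DTT, 30 °C for 3 h.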

[2] = LC-MS assay of GH3 conjugation of 2,4-D with Asp or Glu; settings: LC-MS; for Detected auxin conjugates: 2,4-D-Asp: 2,4-D with Asp; for Detected auxin conjugates: 2,4-D-Glu: 2,4-D with Glu
How it was run: as §1

[3] = LC-MS assay of GH3 conjugation of dicamba with Asp or Glu; settings: LC-MS; for Detected auxin conjugates: Dicamba-Asp: dicamba with Asp; for Detected auxin conjugates: Dicamba-Glu: dicamba with Glu
Experimental: To detect and monitor the formation of acyl conjugates with 2,4-D or dicamba, a sensitive LC-MS method was developed using the respective amino acid conjugate standards. […] […] […] The supernatant was diluted 20× in water and then analyzed by LC-MS (AB Sciex 4000 QTrap coupled with Shimadzu Nexera UHPLC) using a Phenomenex Luna 3 μm Phenyl-Hexyl (00B-4256-Y0) column. The concentration of the conjugates was calculated based on the standards. Kinetic parameters were estimated by fitting initial velocity values to the Michaelis-Menten equation.
The GH3 superfamily conjugase activity analysis of IAA, 2,4-D or dicamba with Asp or Glu was done using LC-MS to analyze the final conjugate products as described in Example 1. Protein sequences of GH3 homologs (Table 3) were obtained from public databases (NCBI, http://www.ncbi.nlm.nih.gov/) by Blast analysis of AtGH3.17 protein sequence (accession # Q9FZ87). Coding sequences were designed for optimal expression in E. coli based on the protein sequences and synthesized. Synthesized coding sequences along with N-term his-tag coding sequences were cloned into a pET24a-based E. coli expression vector. The E. coli expression vectors were transformed into OverExpress C41(DE3) cells (Lucigen) for protein expression. Recombinant E. coli strains were inoculated into 5 ml LB media supplemented with 40 mg/L kanamycin and cultured overnight at 37° C. The overnight culture (0.5 mL) was inoculated into 50 mL LB medium plus 40 mg/L kanamycin and grown at 30° C. until OD600 reached 0.6. The cultures were induced with 0.2 mM IPTG at 16° C., 230 rpm overnight. Cells were harvested by centrifugation at 7,000 rpm for 10 mins. The cell pellet from 50 mL of cell culture was frozen and thawed twice and then lysed in 800 μL lysis buffer A (150 mM NaCl, 50 mM Tris-HCl pH 8.0, 5 mM MgCl2, 10% glycerol) plus 20 mM imidazole, 1 mM DTT, 0.2 mg/ml lysozyme, 1/200 protease inhibitor cocktail (EMD set3, EDTA free) and 1/2000 endonuclease. Lysate was then centrifuged at 13,000 rpm for 30 min at 4° C. Supernatant was loaded onto 200 μL Ni-NTA columns pre-equilibrated with buffer A with 20 mM imidazole at 4° C. Each column was then washed with (1) 2×800 μL of buffer A with 10 mM imidazole, (2) 2×800 μL of buffer A with 20 mM imidazole and (3) 2×200 μL of buffer A with 50 mM imidazole. Protein was eluted with 200 μL of buffer A with 250 mM imidazole. The concentration was measured by Bradford assay. Purified protein was used in conjugation reaction assays as described in example 1.

| Molecule | Detected auxin conjugates: IAA-Asp [1] | Detected auxin conjugates: IAA-Glu [1] | Detected auxin conjugates: 2,4-D-Asp [2] | Detected auxin conjugates: 2,4-D-Glu [2] | Detected auxin conjugates: Dicamba-Asp [3] | Detected auxin conjugates: Dicamba-Glu [3] |
| --- | --- | --- | --- | --- | --- | --- |
| VvGH3-7: GH3 protein, accession XP_002272560 (protein, listed as Vitis vinifera) MESAAGAESNGEHEIIGWFEDVSENTGYVQTQTLCRILELNSGVEYLKKWLGDINVQEMEASALESLYTSLVPLASHADLETYIQRIADGDTSPILTNQPITTLSLSSGTTEGRQKYVPFTRHSSQTTLQIFQLAAAYRSRVYPITPGRRILEFIYSSKQFKTKGGLIAGTATTHYFASEEFKIKQEKTKSFTCSPEEVISSGDYKQSTYCHLLLGLHFHDEVEFITSTFAYSIVQAFRTFEELWRNICSDIREGIVSSRISLPKVRKAVSDIISPNPGLASWIEASCKELEDKDWFGLIPKLWPNAKYVYSIMTGSMQPYLKKLRHYAGDLPLVSADYGSTESWIGANIDPSSPPENVTFAVIPTFSYFEFIPLYRQNQNCSSSIDDFIEDEPVPLSQVKIGQEYEIVLTTFTGLYRYRLGDVVEVAGFHKGTPKLNFICRRKLILTVNIDKNTEKDLQSVVEVGSQLLGKTKAELVDFTSHADLVKQPGHYIIYWEIKGEADDKVLSECCNEMDACFVDQGYIVSRKTHSIGPLELCIVERGTFKKILDHFIGKGAALSQFKTPRCTADEVLLRILNVCTIKRFHSTAYG | Yes | No | No | No | No | No |
| PtGH3-10: GH3 protein, accession EEE95291 (protein, listed as Populus trichocarpa) MEPKNTNGSSRSYEHDIISWFEDISKKAGQVQTETLRRILELNWGVEYLNKWLGDINIQDMDASALESLYTSLVPPASHADLEPYISRIADGDTVPLLTKQPITLLSLSSGTTDGRQKFVPFTDHSARTTLQIFSLAAAYRSRVYPTREGGRILEFIYSSKQFKTKGGLTAGTATTHYYASEEFKIKQEKTKCFTCSPQEVICGGDYEQSTYCHLLLGLFFCDQVEFITSTFAYSIVQAFTAFEDVWRDICNDIKHGTLSERINLAKMRKAVLSIISPNPSLASKIEENCKELETQNWLGLITKLWPNSKYVYSIMTGSMQPYFKKLRHYAGGLALVSADYGSTESWIGANVDPYLPPEDVTFAVIPTFSYYEFMPLYRENHYCGSAIDDFIEDEPVPLSKVKVGQEYEIVLTTFTGLYRCRLGDVVEVAGFHKGTPKLNFICRRKLILTINIDKNTEKDLQLVVEKGSQLLMSKARAELVDFTSHAELETQPGHYIIYWEIKGDVEEEVLGECCKKMDASFVDHGYVVSRRTKSIGPLELCIVKTGTFKKILEYFIGNGAALSQFKTPRCTSNHGLLKILNGSTIKRLYSTAYS | Yes | Yes | Yes | Yes | No | No |
| RcGH3-5: GH3 protein, accession EEF28472 (protein, listed as Ricinus communis) MTKNAERVQKETLKKILEENGSAEYLQNLGLDGRTDPESFKICVPICTHGDLEPYIQRIADGDSSPVLTGKPITTISLSSGTTQGKPKYVPFTDQLLDNTLQIFRTSFAYRNREFPLENGKALEFVFSSKQGKTKGGLAAGTATTNLFRNPNYKTALEELQFKSCSPREVIFGSDFHQSLYCHLLCGLIFREDIQFVFSTFAHSIVLAFRTFEQVWEELCDDIRNGELSSRITAPSIRTAMSHLLKPNAELADLIHTKCSGLSNWYGLIPELFPNAKYIYGIMTGSMEPYLKKLRHYAGELPLLSADYGASEGWIAANVNPLLPPELATFAVLPDIGYFEFIPLRRNGDHIYSEPKPIGLSDVKIGEEYEILVTNFAGFYRYRLGDVVKVMGFHNSTPELKFVCRRSLLLSINIDKNTEKDLQLVVEEAAKLLADEKLEVVDFSSLADRSTDPGHYVIFWEISGEPTAEVLQECCNCLDRSFLDAGYVTSRKVKAIGPLELRVVHRGTFQKILDHYLGLGAAVSQFKTPRCVGPANNVVSQILSNNVAKSYVSTAF | Yes | No | No | No | No | No |
